# Assay: yeast display, Sf9 membrane polyspecificity reagent, FACS + sequencing; frameworks hold sequencing errors
# Procedure, shortened: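 Genes from sorted yeast were amplified by colony PCR, read by MiSeq 2 × 250 sequencing and filtered on CDR length. These cells carried a synthetic nanobody library in Saccharomyces cerevisiae BJ5465 and were sorted by FACS into low and high (top ~1%) gates on anti-HA and streptavidin fluorescence. Polyreactivity is labelled according to the gate of origin.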
row,Sequence,polyreactivity (PSR sort gate)
1,QVQLVESGGGLVQAGGSVRLSCAASGSTFLHYAMGWYRQPPGKERELVAAITDSGGNTYYADSVKCRFTISRDNAKNTVYLQMNSLKPEDTAVYYCAAEYIFHYYDIFDYWGQGTQVTVSS,high polyreactivity
2,QVQLVESGGGLVQAGGSVRLSFAASGSSIFGNFMGWYRQAPGKERELVAGITNRGGSTYFADSVKGRFTISRDNAKITVYLQMNSLKPEDTAVYYCAARKNHSGYGRGNYWGQGTQVTVSS,high polyreactivity
3,QVQLVESGGGLVQAGGTIRLSCAASGIIFRLNPMGWYRQAPGKERELVAAIRRRGGSTYYADSVKGRFTISRDNGKNNVYLQMYSVKPEETEVYHCAKDPHGSDFGYWGQGTHVTVSS,low polyreactivity
4,QVQLVESGGGLVQAGGTLRFSCAATGSIFDPYARGWYRQAPGKEREFVAAITYTGGDTHYADSVKGRFSISRDKAKNTVYLQLNSLKPEDSAVYYFAAVYYRGIQSYDYWGQGTQVTVSS,low polyreactivity
5,QVQLVESGGGLVQAGGTLRISCAASGRIFTIYAMGWYRQAPGKERELVATISSNVGSTYYADSVKGRFTISRDNAKNTVYLQMNSLKPEDTAVYYCAATRRAGFTTAKFDYWGQGTQVTVSS,high polyreactivity
6,QVQLVESGGGLVQAGGTLRISCAASGSIFYLYAMGWYRQAPGKERELVAGIRYRGGSTYYADSVKGRFTISRDNAKNTVYLQMNSLKPEDTAVYYCAAEYGDGRYWSYDYWGQGTQVTVSS,high polyreactivity
7,QVQLVESGGGLVQAGGTLRLSCAACGRTFPINAMAWYRQAPGKERELVASIRWTDGTTYYADSVKGRFTISRDNAKNTVYLQMNSLKPEDTAVYYCAADAEGSASKYDYWGQGTQVTVSS,low polyreactivity
8,QVQLVESGGGLVQAGGTLRLSCAASGFTFSSYTVGWYRQAPRKERELVASISSGGSTNYADSVKGRFTISRDNAKNTVYLQMNSLIPEDTAVFYCAAGTPCISFYDVCSGYDYWGQGTQVTVSS,low polyreactivity
9,QVQLVESGGGLVQAGGTLRLSCAASGLIFFFYAMGWYRQAPGKERELVAAISDDGVSTDYADSVKGRFTISRDNAKNTVYLQMNSLKPEDTAVYYCAAKTERVYPWFSFGYWGQGTQVTVSS,low polyreactivity
10,QVQLVESGGGLVQAGGTLRLSCAASGLIFGRNAMGWYRQAPGKEREFVATYADSVKGRFTISRYNAKNTVYLQMNSLKPEDTAVYYCATRFVWPSYGYYVQGRFDSWGQGTQVTVSS,low polyreactivity
11,QVQLVESGGGLVQAGGTLRLSCAASGRIFRENAMGWYRQAPGKERELVAAISSGGSTYYADSVKGRFTISRDNAKNTVYLQMNSLKPEDTAVYYCAADLSWSRVVFGDYDYWGQGTQVTVSS,low polyreactivity
12,QVQLVESGGGLVQAGGTLRLSCAASGRIFRYNGMGWYRQAPVKERELVAGINWIGGRTYYADSVKGRFTISRDNAKNTVYLQMNSLKPEDTAVYYCAAYWYYIKATTDSDARFDYWGQGTQVTVSS,high polyreactivity
13,QVQLVESGGGLVQAGGTLRLSCAASGRIFSYNAMGWYRQAPGKERELVAAITWRGGNTYYADSVKGRFTISRDNALNTVYLQMNSLQPEDTAVYYCAAQRGRWAPMYFWGQGTQVTVSS,high polyreactivity
14,QVQLVESGGGLVQAGGTLRLSCAASGRIFTHNAMGWYRQAPGKERELVAAITSGGRTTYADSVKGRFTISRDNAKNTVYLQMNSLKPEDTAVYYCNADTGLGSLDFDKRDYWGQGTQVNVSS,low polyreactivity
15,QVQLVESGGGLVQAGGTLRLSCAASGRIFTINAMGWYRQAPGKEREFVAAISGSGGTTYYADSVKGRFTISRDNAMNTVYLQMNSLKPEDTAVYYCAVSQSWYWYYASDYWGQGTQVTVSS,low polyreactivity
16,QVQLVESGGGLVQAGGTLRLSCAASGRIFVYNAMGWYRQAPGKERELVATITSGGSTYYSDSLKGRFTISRDNAKNTLYFQMNSLKPEDTAVYYCAARRWYVHYFAYGYWGQGTQVTVSS,low polyreactivity
17,QVQLVESGGGLVQAGGTLRLSCAASGRILYLNAMGWYRQAPGKEREFVAAISKSGGSTYYADSVKGRFTISRDNAMNSVYLQMNSLKPEDTAVYYCATRFRSAEYDYWGQGTQVTVSS,low polyreactivity
18,QVQLVESGGGLVQAGGTLRLSCAASGSIFGSYAMGWYRQAPGKERELVAAISGSGGRTYYADSVKGRFTISRDNAKNTVYVQMNSLKPEDTAVYYCAAAYPRVTYKYGYYWGQGTHVTVSS,high polyreactivity
19,QVQLVESGGGLVQAGGTLRLSCAASGSIFYYYAMGWYRQAPGKERELVDTISSSSGSTYYADSVKGRFTISRDNAKNTVYLQMISLKPEDTAVYYCAAPLPHRGYYEGYWGQRTQVTVSS,low polyreactivity
20,QVQLVESGGGLVQAGGTLRLSCAASGSTFGWYAMGWYRQAPGKVREFVAAIRGGGSSTYYADSVKWRFTISRDNAKNSVSLQKNSLKQEVTAVYYCAAVTSQLYGKRYYYWGQGTQGTVSS,high polyreactivity
21,QVQLVESGGGLVQAGGTLRLSCAASGSTFGYYAMGWYRQAPGKERELVAAISWRGGSTYYADSVKGRFTISRYNANNTVYLQMNSLKPEDTAVYYCAAPVGNYGSFDYWGQGTKVTVSS,low polyreactivity
22,QVQLVESGGGLVQAGGTLRLSCAASGSTFTDYDMGWYRQAPGQERELVAAITSGGSTNYADSVKGRFTISRDNAKNTVYLQMNSLKPEDTAVYYCAAADADRKYDFWGQGTQVTVSS,low polyreactivity
23,QVQLVESGGGLVQAGGTLRLSCAASGSTFWRNTMEWYRQAPGKERELVAAITGCGGRTYYADSVKGRFTISRDNAKNTVYLQMNSLKPEDTAVYYCAADGRGVHYDYWGQGSQVTVSS,high polyreactivity
24,QVQLVESGGGLVQAGGTLRLSCAASGSTSSNNAMGWYRQAPGKARELVADISTNGDSTSYADSVKGRFTISRDNAKNPVYLLMNSLKPEDTAVYYSAASTYVTYWEYDYWGQGTQVTVSS,low polyreactivity
25,QVQLVESGGGLVQAGGTLRLSCAASGYIFDRNAMGWYRPAPGKERELVAAITKRGGSTYYADSVKGRFTISRDNAKNTVYLQMNSLKPEETAVYYCNALARSSRYDYWGQGTQVTVSS,low polyreactivity
26,QVQLVESGGGLVQAGGTLRLSCAATGRILHIYAMGWYRQAPGKERELVAVISTGGGDTYYADSVKGRFTISRDNANNTVYLQMNSRKPEDTAVYYCAADGYWAGYGYDYWGQGTQVTVSS,high polyreactivity
27,QVQLVESGGGLVQAGGTLRLSCAPSGRIFGIYDMGWYRQAPGKERELVADIDVSDGSTYYADSVKGRFTISRDNAKNTVYLQMNSMKPEDTAVYYCNAEDSSRWYDWYLHDYWGQGTQVTVSS,high polyreactivity
28,QVQLVESGGGLVQAGGTLRLSCAPSGYTFVYNAMGWYRQAPGKEREFVAAISWSGTSTRYADSVKGRFTISRDNAKNTVYLQMNSLKPEDTAVYYCAARRRSAQSGSYNHWGQGTQVTVST,high polyreactivity
29,QVQLVESGGGLVQAGGTLRLSCAPYGIILYRIGMGWYRQAPGKERELVAAISWSTGSTYYADSEKGRFTISRDNAKNTVYLQMNSLKPEDTAVYYCATDYGGYSFGMYYWGQGTQVTVSS,low polyreactivity
30,QVQLVESGGGLVQAGGTLRLSCASSGRIFYHYAMGWDRQAPGKERELVAAISTHTGTTYYADSVKGRFTISRDNAKNTVYLQMNSLKPEDTAVYYCAKRSRYGYGKSYDYWGQGTQVTVST,high polyreactivity

# — the nanobody polyreactivity screen of Harvey et al. (2022)
